Measurements taken from US20220025056A1 (INNATE PHARMA, published 2022).
Where two headings read alike, the source gives them in different places.

How the values were obtained:
[1] = biological target: T1, anchored ILT2 D3-D4 domain protein (human, UniProt Q8NHL6 223-650); assay: flow cytometry, CHO cells with anchored ILT2 domain proteins
T1 construct: on CHO cells; the entry includes leader remnant, V5 tag, and the ILT2 transmembrane and cytoplasmic parts

[2] = biological target: T2, anchored ILT2 D2 domain protein (human); assay: as above
T2 construct: on CHO cells; the entry includes leader remnant, V5 tag and CD24 GPI anchor signal
T2 sequence (chain, as listed by the source limits assumed): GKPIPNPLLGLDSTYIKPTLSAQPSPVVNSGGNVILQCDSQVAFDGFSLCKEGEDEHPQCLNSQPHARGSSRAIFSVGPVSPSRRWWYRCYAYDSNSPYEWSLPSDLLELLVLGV

[3] = biological target: T3, anchored ILT2 D2-D3-D4 domain protein (human, UniProt Q8NHL6 122-650); assay: as above
T3 construct: on CHO cells; the entry includes leader remnant, V5 tag, and the ILT2 transmembrane and cytoplasmic parts
T3 sequence (Q8NHL6 other isoform, or with tags, fused parts or gaps limits assumed): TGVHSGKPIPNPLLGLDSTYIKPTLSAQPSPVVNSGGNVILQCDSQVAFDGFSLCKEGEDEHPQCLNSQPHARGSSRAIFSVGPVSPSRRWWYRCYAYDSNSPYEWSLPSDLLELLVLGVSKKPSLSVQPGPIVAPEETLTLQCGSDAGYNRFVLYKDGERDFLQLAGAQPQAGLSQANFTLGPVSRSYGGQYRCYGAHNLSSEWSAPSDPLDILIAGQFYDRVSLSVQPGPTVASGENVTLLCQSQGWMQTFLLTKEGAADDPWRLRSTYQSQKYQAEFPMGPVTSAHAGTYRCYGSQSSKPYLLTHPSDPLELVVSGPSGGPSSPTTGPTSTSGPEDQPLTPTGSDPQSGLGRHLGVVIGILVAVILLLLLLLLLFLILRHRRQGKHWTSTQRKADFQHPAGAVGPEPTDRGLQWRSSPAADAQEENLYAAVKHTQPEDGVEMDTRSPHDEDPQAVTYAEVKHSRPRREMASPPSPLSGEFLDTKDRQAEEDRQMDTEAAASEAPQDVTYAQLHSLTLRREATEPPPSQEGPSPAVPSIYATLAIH

[4] = biological target: T4, anchored ILT2 D2-D3 domain protein (human, UniProt Q8NHL6 122-321); assay: as above
T4 construct: on CHO cells; the entry includes leader remnant, V5 tag and CD24 GPI anchor signal
T4 sequence (Q8NHL6 other isoform, or with tags, fused parts or gaps limits assumed): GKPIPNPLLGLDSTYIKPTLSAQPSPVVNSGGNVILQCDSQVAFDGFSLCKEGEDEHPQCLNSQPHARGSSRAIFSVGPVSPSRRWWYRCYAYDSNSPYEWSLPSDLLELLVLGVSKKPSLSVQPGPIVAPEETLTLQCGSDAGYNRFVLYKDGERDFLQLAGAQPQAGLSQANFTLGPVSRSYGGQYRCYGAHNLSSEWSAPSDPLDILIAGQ

[5] = biological target: T5, ILT2 mutant 2 (human, UniProt Q8NHL6 24-650); assay: flow cytometry titration on HEK293T cells transfected with ILT2 mutant 2
T5 construct: transfected in HEK293T cells; also called M2

[6] = biological target: T6, human ILT2 (LILRB1) expressed at the surface of transfected cells (human, UniProt Q8NHL6 24-650); assay: flow cytometry, CHO-ILT2 cells
T6 construct: also called CHO-ILT2; CHO ILT2 cell line
T6 sequence (Q8NHL6 24-650): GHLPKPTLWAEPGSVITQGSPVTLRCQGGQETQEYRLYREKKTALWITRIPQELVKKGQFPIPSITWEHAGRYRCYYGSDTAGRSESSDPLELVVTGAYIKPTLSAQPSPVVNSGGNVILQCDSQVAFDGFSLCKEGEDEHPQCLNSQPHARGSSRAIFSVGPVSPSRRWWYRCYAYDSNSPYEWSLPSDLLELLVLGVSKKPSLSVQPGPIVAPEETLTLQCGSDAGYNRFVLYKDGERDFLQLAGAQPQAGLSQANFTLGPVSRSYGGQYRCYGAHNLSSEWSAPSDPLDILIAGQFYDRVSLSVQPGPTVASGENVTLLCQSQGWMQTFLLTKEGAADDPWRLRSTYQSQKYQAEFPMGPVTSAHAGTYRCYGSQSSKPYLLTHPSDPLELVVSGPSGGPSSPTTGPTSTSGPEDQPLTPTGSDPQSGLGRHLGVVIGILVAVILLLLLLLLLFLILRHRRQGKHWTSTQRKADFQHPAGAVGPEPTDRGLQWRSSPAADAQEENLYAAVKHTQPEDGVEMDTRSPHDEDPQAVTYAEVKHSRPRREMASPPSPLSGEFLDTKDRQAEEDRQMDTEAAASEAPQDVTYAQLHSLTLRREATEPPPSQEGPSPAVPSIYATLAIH
Description: Cells were incubated with various concentrations of unlabeled anti-ILT2 antibodies from 30 μg/ml to 5×10-⁴ μg/ml, for 30 minutes at 4° C. After washes with staining buffer, cells were incubated for 30 min at 4° C. with Goat anti-human H+L AF488 secondary antibody (Jackson Immunoresearch #109-546-088) or Goat anti-mouse H+L AF488 secondary antibody for commercially available antibodies (Jackson Immuoresearch #115-545-146). Fluorescence was measured on an Accury C6 flow cytometer equipped with an HTFC plate loader.

[7] = biological target: T6, human ILT2 (LILRB1) expressed at the …; assay: flow cytometry titration on HEK293T cells transfected with wild-type ILT2
[8] = biological target: T7, anchored ILT2 D4 domain protein (human, UniProt Q8NHL6 322-650); assay: flow cytometry on CHO cells expressing the anchored ILT2 D4 domain protein (SEQ ID NO: 49); stacked histograms, axis without numbers
T7 construct: on CHO cells; the entry includes leader remnant, V5 tag, and the ILT2 transmembrane and cytoplasmic parts

[9] = biological target: T8, human ILT2 on primary NK cells (human, UniProt Q8NHL6 24-650); assay: cell-based or functional assay
T8 sequence (Q8NHL6 24-650): as above

[10] = biological target: T9, biotinylated BirA-tagged ILT2 protein tetramerised on APC-conjugated streptavidin (human, UniProt Q8NHL6 24-458, limits assumed, 1 biotin molecule per ILT2 protein (BirA tag)); assay: flow cytometry blocking assay: ILT2-streptavidin-APC complexes pre-incubated with antibody, then added to K562 cells expressing HLA-G; blocked ligand HLA-G
T9 construct: ratio 1 streptavidin per 4 ILT2 protein; streptavidin-APC not written as a chain; also called ILT2-SA tetramers; recombinant biotinylated ILT2
T9 sequence (Q8NHL6 24-458 limits assumed): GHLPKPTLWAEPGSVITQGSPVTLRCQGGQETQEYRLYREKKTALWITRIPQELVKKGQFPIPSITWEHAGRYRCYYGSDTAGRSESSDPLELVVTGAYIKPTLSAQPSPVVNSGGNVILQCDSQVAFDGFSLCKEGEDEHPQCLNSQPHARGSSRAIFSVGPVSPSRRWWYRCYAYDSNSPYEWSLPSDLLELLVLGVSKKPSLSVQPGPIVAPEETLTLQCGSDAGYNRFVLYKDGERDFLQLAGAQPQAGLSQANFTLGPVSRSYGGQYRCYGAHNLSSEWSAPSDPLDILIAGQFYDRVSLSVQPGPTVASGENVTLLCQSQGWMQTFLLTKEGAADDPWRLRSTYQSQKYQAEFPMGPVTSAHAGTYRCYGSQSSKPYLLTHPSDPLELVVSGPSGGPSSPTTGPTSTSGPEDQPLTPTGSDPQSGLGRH

[11] = biological target: T9, biotinylated BirA-tagged ILT2 protein …; assay: flow cytometry blocking assay: ILT2-streptavidin-APC complexes pre-incubated with antibody, then added to WIL2-NS cells expressing HLA-A2; blocked ligand HLA-A2
[12] = biological target: T10, anchored ILT2 D3 domain protein (human); assay: flow cytometry on CHO cells expressing the anchored ILT2 D3 domain protein (SEQ ID NO: 48); stacked histograms, axis without numbers, no control histogram
T10 construct: on CHO cells; the entry includes leader remnant, V5 tag and CD24 GPI anchor signal
T10 sequence (chain, as listed by the source limits assumed): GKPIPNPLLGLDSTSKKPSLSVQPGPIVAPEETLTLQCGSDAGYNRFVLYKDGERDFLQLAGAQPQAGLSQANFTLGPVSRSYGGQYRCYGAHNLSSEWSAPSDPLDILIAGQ

[13] = biological target: T11, human ILT4 (LILRB2) on CHO cells (human, UniProt Q8N423 23-597); assay: flow cytometry, CHO transfectants
T11 construct: also called CHO ILT4 cell line

[14] = biological target: T12, human ILT5 (LILRB3) on CHO cells (human, UniProt O75022 24-626); assay: flow cytometry, CHO transfectants
T12 construct: also called CHO ILT5 cell line
T12 sequence (O75022 other isoform, or with tags, fused parts or gaps): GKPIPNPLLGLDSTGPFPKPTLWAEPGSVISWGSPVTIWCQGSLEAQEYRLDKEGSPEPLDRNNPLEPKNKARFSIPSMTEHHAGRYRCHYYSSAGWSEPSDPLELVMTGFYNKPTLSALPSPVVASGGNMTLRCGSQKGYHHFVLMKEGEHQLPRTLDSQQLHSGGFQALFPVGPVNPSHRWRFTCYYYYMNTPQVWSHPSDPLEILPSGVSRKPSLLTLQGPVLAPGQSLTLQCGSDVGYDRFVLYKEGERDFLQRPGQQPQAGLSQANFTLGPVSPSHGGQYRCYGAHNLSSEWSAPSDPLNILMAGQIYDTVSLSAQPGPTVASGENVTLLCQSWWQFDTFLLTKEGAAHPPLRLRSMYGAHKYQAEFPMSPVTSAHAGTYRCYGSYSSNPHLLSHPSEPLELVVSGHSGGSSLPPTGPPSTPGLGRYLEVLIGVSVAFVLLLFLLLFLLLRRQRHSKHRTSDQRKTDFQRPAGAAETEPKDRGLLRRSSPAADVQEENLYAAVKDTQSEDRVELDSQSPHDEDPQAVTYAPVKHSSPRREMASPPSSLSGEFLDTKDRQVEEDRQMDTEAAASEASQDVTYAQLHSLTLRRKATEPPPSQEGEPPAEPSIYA

[15] = biological target: T13, human ILT3 (LILRB4) on CHO cells (human, UniProt Q8NHJ6 24-443); assay: flow cytometry, CHO transfectants
T13 construct: also called CHO ILT3 cell line

[16] = biological target: T14, human ILT6 (LILRA3) on CHO cells (human, UniProt Q8N6C8 24-434); assay: flow cytometry, CHO transfectants
T14 construct: also called CHO ILT6 cell line; human ILT-6 polypeptide
T14 sequence (Q8N6C8 other isoform, or with tags, fused parts or gaps): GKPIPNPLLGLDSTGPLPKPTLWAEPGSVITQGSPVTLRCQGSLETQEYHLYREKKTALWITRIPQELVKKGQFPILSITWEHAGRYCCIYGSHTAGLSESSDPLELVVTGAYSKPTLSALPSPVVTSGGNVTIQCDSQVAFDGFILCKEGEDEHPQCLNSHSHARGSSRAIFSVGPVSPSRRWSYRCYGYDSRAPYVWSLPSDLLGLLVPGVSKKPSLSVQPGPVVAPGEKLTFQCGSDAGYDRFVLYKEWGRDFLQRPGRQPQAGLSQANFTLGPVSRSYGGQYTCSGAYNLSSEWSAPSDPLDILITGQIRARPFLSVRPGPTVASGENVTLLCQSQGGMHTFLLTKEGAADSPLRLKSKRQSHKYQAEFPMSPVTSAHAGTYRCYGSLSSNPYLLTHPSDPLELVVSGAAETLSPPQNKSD

[17] = biological target: T15, human ILT8 (LILRA6) on CHO cells (human, UniProt Q6PI73 24-477); assay: flow cytometry, CHO transfectants
T15 construct: also called CHO ILT8 cell line

[18] = biological target: T16, human ILT1 (LILRA2) on CHO cells (human, UniProt Q8N149 24-475); assay: flow cytometry, CHO transfectants
T16 construct: also called CHO ILT1 cell line

[19] = biological target: T17, human ILT7 (LILRA4) on CHO cells (human, UniProt P59901 28-494); assay: flow cytometry, CHO transfectants
T17 construct: also called CHO ILT7 cell line
T17 sequence (P59901 other isoform, or with tags, fused parts or gaps): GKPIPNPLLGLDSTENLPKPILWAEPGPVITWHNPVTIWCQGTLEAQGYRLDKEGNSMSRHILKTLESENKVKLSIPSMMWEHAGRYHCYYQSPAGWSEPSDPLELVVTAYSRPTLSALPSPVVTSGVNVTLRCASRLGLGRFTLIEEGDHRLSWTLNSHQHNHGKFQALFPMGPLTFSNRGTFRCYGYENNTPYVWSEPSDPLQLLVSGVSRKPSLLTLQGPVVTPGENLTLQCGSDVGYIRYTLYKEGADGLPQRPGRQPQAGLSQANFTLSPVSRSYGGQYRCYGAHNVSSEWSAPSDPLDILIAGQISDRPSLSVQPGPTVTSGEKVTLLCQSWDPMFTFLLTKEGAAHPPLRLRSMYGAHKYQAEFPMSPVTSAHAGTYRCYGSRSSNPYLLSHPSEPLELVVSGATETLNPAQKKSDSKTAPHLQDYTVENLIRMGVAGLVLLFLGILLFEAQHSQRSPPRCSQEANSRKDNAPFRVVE

[20] = biological target: T18, ILT-2_6xHis recombinant protein (human, UniProt Q8NHL6 24-458); assay: SPR, antibody captured on Protein-A, soluble ILT2 analyte
T18 construct: monomers purified by SEC; also called recombinant 6xHIS tagged ILT2; recombinant human ILT2 proteins
T18 sequence (Q8NHL6 other isoform, or with tags, fused parts or gaps limits assumed): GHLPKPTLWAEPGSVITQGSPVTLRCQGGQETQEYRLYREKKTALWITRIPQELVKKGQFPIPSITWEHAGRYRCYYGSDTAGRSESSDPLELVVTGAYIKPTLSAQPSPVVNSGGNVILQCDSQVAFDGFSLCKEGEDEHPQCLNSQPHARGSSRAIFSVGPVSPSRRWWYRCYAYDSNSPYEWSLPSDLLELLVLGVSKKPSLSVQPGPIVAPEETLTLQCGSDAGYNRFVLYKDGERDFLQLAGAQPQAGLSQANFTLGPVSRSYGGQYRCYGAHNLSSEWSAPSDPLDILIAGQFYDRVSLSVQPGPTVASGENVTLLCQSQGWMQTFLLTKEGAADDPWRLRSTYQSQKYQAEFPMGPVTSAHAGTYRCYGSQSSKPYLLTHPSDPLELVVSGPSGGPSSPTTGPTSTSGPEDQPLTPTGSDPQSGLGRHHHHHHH
Description: (§1) Measurements were performed on a Biacore T200 apparatus (Biacore GE Healthcare) at 25° C. In all Biacore experiments HBS-EP+(Biacore GE Healthcare) and NaOH 10 mM served as running buffer and regeneration buffer respectively. Sensorgrams were analyzed with Biacore T100 Evaluation software. Protein-A was purchased from (GE Healthcare). Human ILT2 recombinant proteins were cloned, produced and purified at Innate Pharma. Protein-A proteins were immobilized covalently to carboxyl groups in the dextran layer on a Sensor Chip CM5. The chip surface was activated with EDC/NHS (N-ethyl-N′-(3-dimethylaminopropyl) carbodiimidehydrochloride and N-hydroxysuccinimide (Biacore GE Healthcare)). Protein-A was diluted to 10 μg/ml in coupling buffer (10 mM acetate, pH 5.6) and injected until the appropriate immobilization level was reached (i.e. 600 RU). Deactivation of the remaining activated groups was performed using 100 mM ethanolamine pH 8 (Biacore GE Healthcare). […] For blank subtraction, cycles were performed again replacing ILT2 proteins with running buffer. The monovalent affinity analysis was conducted following a regular Capture-Kinetic protocol as recommended by the manufacturer (Biacore GE Healthcare kinetic wizard). Seven serial dilutions of human ILT2 proteins, ranging from 1.95 nM to 250 nM were sequentially injected over the captured antibodies and allowed to dissociate for 10 min before regeneration. The entire sensorgram sets were fitted using the 1:1 kinetic binding model or two state reaction model, as a function of the profile of the curves.

[21] = biological target: T8, human ILT2 on primary NK cells; assay: flow cytometry, primary NK cells
[22] = biological target: T19, ILT2 mutant 1 (human, UniProt Q8NHL6 24-650); assay: flow cytometry titration on HEK293T cells transfected with ILT2 mutant 1
T19 construct: transfected in HEK293T cells; also called M1

[23] = biological target: T20, anchored ILT2 D1-D2 domain protein (human, UniProt Q8NHL6 24-222); assay: flow cytometry, CHO cells with anchored ILT2 domain proteins
T20 construct: on CHO cells; the entry includes leader remnant, V5 tag and CD24 GPI anchor signal
T20 sequence (Q8NHL6 other isoform, or with tags, fused parts or gaps limits assumed): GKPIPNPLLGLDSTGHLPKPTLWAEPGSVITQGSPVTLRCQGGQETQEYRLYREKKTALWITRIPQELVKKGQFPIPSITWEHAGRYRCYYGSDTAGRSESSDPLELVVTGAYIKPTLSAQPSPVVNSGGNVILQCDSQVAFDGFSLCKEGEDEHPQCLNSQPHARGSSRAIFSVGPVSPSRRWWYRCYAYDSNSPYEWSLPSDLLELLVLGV

[24] = biological target: T21, anchored ILT2 D1-D2-D3 domain protein (human, UniProt Q8NHL6 24-321); assay: as above
T21 construct: on CHO cells; the entry includes leader remnant, V5 tag and CD24 GPI anchor signal

[25] = biological target: T22, Mutant D4-4; assay: flow cytometry titration on HEK293T cells transfected with ILT2 mutant 4-4
T22 construct: also called ILT2 mutant 4-4; mutant 4-4

[26] = biological target: T23, Mutant D4-1B; assay: flow cytometry titration on HEK293T cells transfected with ILT2 mutant 4-1b
T23 construct: read as S304F; also called ILT2 mutant 4-1b; mutant 4-1b

[27] = biological target: T6, human ILT2 (LILRB1) expressed at the …; assay: flow cytometry titration on HEK293T cells transfected with wild-type ILT2; remark: listed apart in the source
[28] = biological target: T24, ILT2 mutant 4-2 (human, UniProt Q8NHL6 24-650); assay: flow cytometry titration on HEK293T cells transfected with ILT2 mutant 4-2
T24 construct: transfected in HEK293T cells

[29] = biological target: T25, anchored ILT2 D1 domain protein (human); assay: flow cytometry on CHO cells expressing the anchored ILT2 D1 domain protein (SEQ ID NO: 46); stacked histograms, axis without numbers
T25 construct: on CHO cells; the entry includes leader remnant, V5 tag and CD24 GPI anchor signal

[30] = biological target: T26, ILT2 mutant 4-5 (human, UniProt Q8NHL6 24-650); assay: flow cytometry titration on HEK293T cells transfected with ILT2 mutant 4-5
T26 construct: transfected in HEK293T cells

[31] = biological target: T27, ILT2 mutant 4-1 (human, UniProt Q8NHL6 24-650); assay: flow cytometry titration on HEK293T cells transfected with ILT2 mutant 4-1
T27 construct: transfected in HEK293T cells

[32] = biological target: T7, anchored ILT2 D4 domain protein; assay: flow cytometry, CHO cells with anchored ILT2 domain proteins
[33] = biological target: T10, anchored ILT2 D3 domain protein; assay: as above
[34] = biological target: T18, ILT-2_6xHis recombinant protein; assay: SPR, antibody captured on Protein-A, soluble ILT2 analyte; 1:1 Binding
Description: as §1

[35] = biological target: T5, ILT2 mutant 2; assay: flow cytometry, ILT2 point mutants

Row | binding result [1] | binding result [2] | binding result [3] | binding result [4] | EC50 [6] | CD137 expression on ILT2-positive primary NK cells [9] | CD137 expression on NK cells of urothelial cancer patients with HLA-A2-expressing B cells [9] | IC50 (read off the curve) [11] | binding result [12] | binding result [13] | binding result [14] | binding result [15] | binding result [16] | binding result [17] | binding result [18] | binding result [19] | Kd [20] | koff [20] | EC50 [21] | Binder | further results
1 | no binding | no binding | no binding | no binding | 0.36 µg/mL | 2 fold | > 2 fold | ~0.1 µg/mL | no binding | no binding | no binding | no binding | no binding | no binding | no binding | no binding | 1 nM | 0.00042 s⁻¹ | 0.09 µg/mL | 12D12 (antibody, human IgG1, V domains shown) VH: QVQLQQPGAELVKPGASVRMSCKASGYTFTSYWVHWVKQRPGQGLEWIGVIDPSDSYTSYNQNFKGKATLTVDTSSKTAYIHLSSLTSEDSAVYFCARGERYDGDYFAMDYWGQGTSVTVSS VL: DIVMTQSPASLSVSVGETVTITCRASENIYSNLAWYQQKQGKSPQLLVYAATNLADGVPSRFSGSRSGTQYSLKINSLQSEDFGTYYCQHFWNTPRTFGGGTKLEIK | binding result [5]: no binding (tested: about 20 µg/ml); EC50 (read off the curve) [7]: ~0.5 µg/mL; binding result [8]: no binding; IC50 (read off the curve) [10]: ~0.2 µg/mL; kon [20]: 430000 M⁻¹ s⁻¹; EC50 (read off the curve) [22]: ~0.4 µg/mL
2 |  | no binding |  | no binding | 0.12 µg/mL | 2 fold | > 2 fold |  | no binding | no binding | no binding | no binding | no binding | no binding | no binding | no binding | 0.2 nM | 0.00011 s⁻¹ | 0.11 µg/mL | 18E1 (antibody, human IgG1, V domains shown) VH: QVQLQQSGAELVKPGASVRLSCKASGYTFTAHTIHWVKQRSGQGLEWIGWLYPGSGSIKYNEKFKDKATLTADKSSSTVYMELSRLTSEDSAVYFCARHTNWDFDYWGQGTTLTVSS VL: NIVLTQSPASLAVSLGQRATISCKASQSVDYGGASYMNWYQQKPGQPPKLLIYAASNLESGIPARFSGSGSGTDLTLNIHPVEEEDAAMYYCQQSNEEPWTFGGGTKLEIK | binding result [23]: no binding; binding result [24]: no binding; binding result [25]: binds; binding result [26]: binds; EC50 (read off the curve) [27]: ~0.3 µg/mL; binding result [28]: no binding (tested: about 20 µg/ml); binding result [29]: no binding; binding result [30]: binds; binding result [31]: no binding (tested: about 20 µg/ml)
3 | no binding | no binding | no binding | no binding |  |  |  | ~0.1 µg/mL |  |  |  |  | no binding |  |  |  |  |  |  | 48F12 (antibody, human IgG1, V domains shown) VH: QVQLKESGPGLVAPSQSLSITCTVSGFSLTSYGVSWVRQPPGKGLEWLGIIWGDGSTNYHSALVSRLSISKDNSKSQVFLKLNSLQTDDTATYYCAKPNWDYYAMDYWGQGTSVTVSS VL: DIQMTQTTSSLSASLGDRVTISCRASQDISNYLNWYQQKVDGTVKLLISYTSRLHSGVPSRFSGSGSGTDYSLTISNLEQEDIATYFCQQGITLPLTFGAGTKLELK | binding result [32]: no binding; binding result [33]: no binding; Kd [34]: 0.2 nM; koff [34]: 0.0001 s⁻¹; kon [34]: 500000 M⁻¹ s⁻¹; binding result [35]: no binding
